For test [1], the target named is T1, prefusion-stabilized ectodomain of the SARS-CoV-2 spike (SARS-CoV-2, WH01, stabilised). The experiment in a line: BLI. Conditions: both partners purified.
Test [2] deals with T1, prefusion-stabilized ectodomain of the …. The experiment in a line: cell-based or functional assay.

B1: n3113.1 (VHH)
VHH: EVQLVESGGGLVQPGGSLRLSCAASDSSFYDYEMSWVRQAPGKAQEWIGSMYPSGRTYINPSLKSLVTISRDNSKNTLYLQLNSLRAEDTAMYYCVSNWASGSTGDYWGQGTLVTVSS
A word on the Kd: it is the concentration at which binding is half-saturated. Read a high Kd as lower affinity. For B1, in test [1], the Kd amounted to 63.8 nM. For the same molecule, the “IC50 of neutralisation of SARS-CoV-2 S pseudovirus” value in test [2] worked out at 6 µg/mL.

The values are drawn from paper PMC8564274 (Signal Transduction and Targeted Therapy, 2021).
